Positions count from the first letter of the chain named.
B1: TNPa (peptide)
peptide: SDSKIGDGCFGLPLDHIGSVSGLGCNRPVQNRPKK
modifications: not checked
B2: TNPb (peptide)
peptide: B1 peptide with S3P
modifications: not checked
B3: TNPc (peptide)
peptide: SDSKIGNGCFGFPLDRIGSVSGLGCNRIMQNPPKKFSGE
modifications: not checked

Columns and labels:
Test in all cases: cell-based or functional assay
[1] = target: Natriuretic Peptide Receptor-A (NPR-A) of MDCK cells (canine (endogenous in MDCK cells))
rat GC-A (rat) = rat GC-A (rat) (UniProt P18910)
NPR-A of HeLa cells = NPR-A of HeLa cells (UniProt P16066)
NPR-C (rat) = target: T1, NPR-C (rat) (UniProt P41740)
T1 sequence: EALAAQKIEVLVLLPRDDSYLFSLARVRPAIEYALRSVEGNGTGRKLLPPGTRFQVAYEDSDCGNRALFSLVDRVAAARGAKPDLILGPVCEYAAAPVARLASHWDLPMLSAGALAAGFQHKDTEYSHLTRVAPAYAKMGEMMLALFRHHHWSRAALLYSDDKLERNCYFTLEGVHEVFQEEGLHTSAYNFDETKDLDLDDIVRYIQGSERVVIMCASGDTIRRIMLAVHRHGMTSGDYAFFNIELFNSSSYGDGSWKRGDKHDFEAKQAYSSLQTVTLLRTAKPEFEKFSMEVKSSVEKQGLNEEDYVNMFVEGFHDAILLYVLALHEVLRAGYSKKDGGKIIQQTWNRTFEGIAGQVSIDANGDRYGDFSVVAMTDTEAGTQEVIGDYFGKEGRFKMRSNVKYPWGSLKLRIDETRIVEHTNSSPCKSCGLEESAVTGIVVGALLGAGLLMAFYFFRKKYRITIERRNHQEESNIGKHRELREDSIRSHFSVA

NPR-C (rat), P41740 = target: T2, NPR-C (rat), P41740
T2 chain: T1 sequence

[2] = target: T3, NPR-A of HeLa cells, P16066
T3 chain: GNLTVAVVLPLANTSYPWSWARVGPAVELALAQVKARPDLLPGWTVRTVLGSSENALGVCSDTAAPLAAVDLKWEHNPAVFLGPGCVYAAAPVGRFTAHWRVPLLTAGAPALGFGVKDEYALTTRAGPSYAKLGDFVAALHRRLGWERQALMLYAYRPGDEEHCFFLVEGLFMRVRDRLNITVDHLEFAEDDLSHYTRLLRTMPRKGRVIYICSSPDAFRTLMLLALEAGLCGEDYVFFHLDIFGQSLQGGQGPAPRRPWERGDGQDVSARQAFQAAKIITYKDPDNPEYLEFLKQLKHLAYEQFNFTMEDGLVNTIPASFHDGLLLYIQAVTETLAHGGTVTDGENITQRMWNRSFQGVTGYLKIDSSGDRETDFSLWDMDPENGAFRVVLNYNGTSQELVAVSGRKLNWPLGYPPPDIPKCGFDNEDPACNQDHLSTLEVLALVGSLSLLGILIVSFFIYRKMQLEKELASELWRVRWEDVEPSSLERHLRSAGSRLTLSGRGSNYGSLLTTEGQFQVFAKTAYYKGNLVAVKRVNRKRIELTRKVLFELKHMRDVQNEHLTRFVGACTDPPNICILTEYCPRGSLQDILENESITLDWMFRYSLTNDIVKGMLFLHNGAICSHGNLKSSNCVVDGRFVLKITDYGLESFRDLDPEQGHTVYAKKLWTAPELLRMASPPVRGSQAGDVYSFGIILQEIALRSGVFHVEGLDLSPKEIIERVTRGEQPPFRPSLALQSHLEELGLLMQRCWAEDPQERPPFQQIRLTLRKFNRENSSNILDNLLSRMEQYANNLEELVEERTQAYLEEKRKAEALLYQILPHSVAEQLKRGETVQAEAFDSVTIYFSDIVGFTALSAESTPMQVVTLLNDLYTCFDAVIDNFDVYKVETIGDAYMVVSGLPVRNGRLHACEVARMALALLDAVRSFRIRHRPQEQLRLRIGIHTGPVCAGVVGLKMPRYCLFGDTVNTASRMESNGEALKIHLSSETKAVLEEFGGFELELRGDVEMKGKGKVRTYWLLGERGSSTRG

[3] = target: T4, Natriuretic Peptide Receptor-A (NPR-A) of MDCK cells (canine (endogenous in MDCK cells)), A0A8I3
T4 chain: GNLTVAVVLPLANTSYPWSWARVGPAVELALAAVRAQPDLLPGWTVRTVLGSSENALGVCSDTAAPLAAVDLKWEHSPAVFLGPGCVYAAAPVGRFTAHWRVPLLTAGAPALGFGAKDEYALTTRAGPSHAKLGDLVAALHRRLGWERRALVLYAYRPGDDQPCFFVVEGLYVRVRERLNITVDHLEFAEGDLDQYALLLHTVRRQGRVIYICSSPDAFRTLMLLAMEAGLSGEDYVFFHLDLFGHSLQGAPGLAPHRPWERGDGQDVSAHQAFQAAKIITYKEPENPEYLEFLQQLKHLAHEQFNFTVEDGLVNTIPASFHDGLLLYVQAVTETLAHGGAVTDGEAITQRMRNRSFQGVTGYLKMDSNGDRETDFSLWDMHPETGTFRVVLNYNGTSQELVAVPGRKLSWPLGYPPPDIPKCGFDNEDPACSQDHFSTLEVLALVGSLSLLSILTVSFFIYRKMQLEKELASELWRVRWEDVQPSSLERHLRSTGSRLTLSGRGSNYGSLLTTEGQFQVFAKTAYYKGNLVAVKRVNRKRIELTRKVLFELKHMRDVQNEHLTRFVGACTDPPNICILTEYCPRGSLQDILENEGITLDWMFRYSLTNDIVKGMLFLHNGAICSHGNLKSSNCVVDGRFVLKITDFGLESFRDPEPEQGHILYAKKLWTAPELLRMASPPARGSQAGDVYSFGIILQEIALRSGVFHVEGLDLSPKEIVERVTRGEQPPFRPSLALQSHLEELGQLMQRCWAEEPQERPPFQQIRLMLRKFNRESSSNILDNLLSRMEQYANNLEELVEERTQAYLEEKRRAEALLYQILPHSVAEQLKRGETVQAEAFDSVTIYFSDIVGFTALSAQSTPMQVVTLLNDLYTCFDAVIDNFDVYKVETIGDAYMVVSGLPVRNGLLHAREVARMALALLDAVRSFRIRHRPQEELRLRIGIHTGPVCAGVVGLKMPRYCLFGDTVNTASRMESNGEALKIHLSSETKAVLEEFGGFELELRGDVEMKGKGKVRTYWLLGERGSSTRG

rat GC-A (rat), P18910 = target: T5, rat GC-A (rat), P18910
T5 chain: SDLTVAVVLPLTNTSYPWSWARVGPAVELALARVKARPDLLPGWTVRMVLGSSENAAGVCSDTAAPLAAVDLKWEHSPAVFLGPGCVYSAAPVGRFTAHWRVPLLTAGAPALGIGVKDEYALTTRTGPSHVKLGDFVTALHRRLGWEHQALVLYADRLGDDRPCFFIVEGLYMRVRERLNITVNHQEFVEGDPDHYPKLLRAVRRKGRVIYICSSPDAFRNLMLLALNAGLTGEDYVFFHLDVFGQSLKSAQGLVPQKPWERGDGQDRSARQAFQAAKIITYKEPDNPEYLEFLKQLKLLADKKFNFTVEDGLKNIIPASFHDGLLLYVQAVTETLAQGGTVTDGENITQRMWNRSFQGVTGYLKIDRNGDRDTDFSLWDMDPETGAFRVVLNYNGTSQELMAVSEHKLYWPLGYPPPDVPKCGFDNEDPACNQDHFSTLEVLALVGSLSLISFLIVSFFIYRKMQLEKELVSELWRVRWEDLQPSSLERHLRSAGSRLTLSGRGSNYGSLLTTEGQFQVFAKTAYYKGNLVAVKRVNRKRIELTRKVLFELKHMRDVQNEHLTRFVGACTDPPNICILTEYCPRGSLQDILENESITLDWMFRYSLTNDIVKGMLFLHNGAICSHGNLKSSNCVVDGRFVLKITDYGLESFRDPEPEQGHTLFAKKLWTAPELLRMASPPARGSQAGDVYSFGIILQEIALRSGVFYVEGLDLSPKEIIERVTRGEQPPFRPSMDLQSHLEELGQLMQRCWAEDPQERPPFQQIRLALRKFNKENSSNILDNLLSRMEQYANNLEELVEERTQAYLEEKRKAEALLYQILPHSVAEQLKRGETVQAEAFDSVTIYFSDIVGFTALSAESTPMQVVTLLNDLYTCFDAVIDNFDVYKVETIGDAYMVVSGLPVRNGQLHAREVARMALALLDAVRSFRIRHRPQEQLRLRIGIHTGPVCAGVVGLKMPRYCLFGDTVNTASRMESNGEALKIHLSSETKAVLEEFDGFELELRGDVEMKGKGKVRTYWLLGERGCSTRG

Molecule	-Log10 EC50 (pEC50) of cGMP accumulation in MDCK cells [1]	EC50 of cGMP accumulation in MDCK cells [1] [µM]	mean relaxation of denuded aortic rings, % of KCl response (% of KCl response) (rat GC-A (rat))	also measured
Nle29-TNPc (peptide)	6.5	0.399	61	
rANP (from UniProt P01161 123-150) (peptide)	8.76	0.00847		
PNP (peptide)	6.66	0.347		
CHA10-TNPc (peptide)	7.84	0.0144	64.2	
K7-TNPc (peptide)	7.44	0.0527	46.1	relaxation of denuded aortic rings (rat GC-A (rat)): 50%
Lebetin 2 isoform α (peptide)	7.64	0.0268		
P28-TNPc (peptide)	6	1.19	52.6	
R32-TNPc (peptide)	7.68	0.0991	66.4	
hBNP (peptide)	9.16	0.000906		-Log10EC50 (pEC50) of cGMP accumulation in HeLa cells (NPR-A of HeLa cells): 6.92; EC50 of cGMP accumulation in HeLa cells (NPR-A of HeLa cells): 0.147 µM
N7D-TNPc (peptide)	7.58	0.0262		
S6, A7-TNPc (peptide)	6.9	0.169	43.1	
hANP (peptide)	8.79	0.0164	66.5	relaxation of KCl pre-contracted endothelium-intact rat aortic rings (NPR-C (rat)): 100%; relaxation of KCl pre-contracted endothelium-denuded rat aortic rings (rat GC-A (rat)): 100%
DNP (peptide)	8.08	1.85		-Log10EC50 (pEC50) of cGMP accumulation in HeLa cells (NPR-A of HeLa cells): 9.42; EC50 of cGMP accumulation in HeLa cells (NPR-A of HeLa cells): 0.000392 µM; relaxation of KCl pre-contracted endothelium-intact rat aortic rings (NPR-C (rat)): 100%; relaxation of KCl pre-contracted endothelium-denuded rat aortic rings (rat GC-A (rat)): 100%
R18-TNPc (peptide)	6.78	0.7	0.5	
S6, K7-TNPc (peptide)	7.57	0.0524	43.8	
A7-TNPc (peptide)	6.87	0.161	32.9	
B1				relaxation of KCl pre-contracted endothelium-intact rat aortic rings (NPR-C (rat), P41740): 20%
B2				relaxation of KCl pre-contracted endothelium-intact rat aortic rings (NPR-C (rat), P41740): 20%
B3				EC50 of cGMP accumulation in HeLa cells [2]: 124000 µM; relaxation of KCl pre-contracted endothelium-intact rat aortic rings (NPR-C (rat), P41740): 100%; -Log10 EC50 (pEC50) of cGMP accumulation in MDCK cells [3]: 6.93; EC50 of cGMP accumulation in MDCK cells [3]: 0.184 µM; mean relaxation of denuded aortic rings, % of KCl response (% of KCl response) (rat GC-A (rat), P18910): 55; relaxation of KCl pre-contracted endothelium-denuded rat aortic rings (rat GC-A (rat), P18910): 100%
